Experimental data from PMC9157036.

Target: ferritin-based 24-meric nanoparticle with N-terminal protein A tag
Test: SPR
Conditions: Fc fusion

For “RBD (residues 331aa-524aa) of the SARS-CoV-2 Omicron spike protein with an Fc tag in the C-terminus (from UniProt P0DTC2 331-524)”, which Kd is on record?
The Kd was 187 nM.
